Tests used:
[1] = biological target: Angiotensin-I Converting Enzyme (ACE) (Homo sapiens, UniProt P12821); assay: Determination of ACE inhibitory activity of hydrolysates in a microtiter plate (Hip-His-Leu substrate); assay type: biochemical; conditions: no digestion simulation, in %
Description: ACE inhibitory activity can be measured in vitro using a spectrophotometry based assay. The assay is based on the liberation of hippuric acid from Hip-His-Leu substrate catalyzed by ACE.
Calculation of Ace Inhibition:
[formula] 2.4 Further (Optimized) Hydrolysis of Ovomucin with Alcalase Protocol for the DH Determination by TNBS Method Solutions: • 0.21 M Sodium phosphate buffer pH8.2 • 0.21 M NaH2PO4.H2O (25 ml solution) • 0.21 M Na2HPO4.2H2O (500 ml solution) • mix solutions to pH 8.2 • 0.05% TNBS • Dilute TNBS stock (5% solution) to 0.05% in MQ cover reagent tube with aluminium foil and store in dark place • 1% SDS solution • Leucine standard (stock 3 mM Leucine) • Dissolve Leucine in 1% SDS solution. Dilute the stock solution 20×, 10×, 4× en 2× with 1% SDS for analysis • Blank • Dilute non-hydrolysed sample in 1% SDS to a protein concentration of 0.5 mg/ml • Samples • Dilute hydrolysed protein in 1% SDS to a concentration of 0.5 mg/ml in duplo Analysis: • Pipet 15 μl sample (Leucine standard or sample) in microwell. Measure each dilution in twofold in plate (Costar, non-binding plate) • Add 45 μl 0.21 M sodium phosphate buffer pH 8.2 • Add 45 μl 0.05% TNBS. Cover plate with aluminium foil. Incubate plate for 60 minutes in a 50° C. stove. • After incubation add 90 μl 0.1 N HCl • Measure absorption at 340 nm (microplate reader) Calculation of degree of hydrolysis (DH): • Make calibration line of Leucine standard. This calibration line is used to convert absorption values of samples to NH2-equivalents.

SHR rats = assay: Acute oral treatment of anaesthetized SHR, blood pressure; assay type: in vivo, rat; conditions: single oral dose 1000 mg/kg, percentage change from baseline
Description: (§1) This study was performed to establish the effects of acute oral treatment of anaesthetized SHR with lysozym/alcalase on blood pressure and plasma ACE activity.
Rats: SHR rats (382-440 g) were purchased via Harlan, Horst, The Netherlands from Harlan, Oxon, United Kingdom.
(§2) Surgery: At the day of the experiment, rats were anaesthetized and the carotid artery was cannulated for measurement of blood pressure. In addition to that, the jugular vein was cannulated to allow blood sampling for measurement of plasma ACE activity.
(§3) Protocol: At timepoint t=0, rats were administered the study drugs by means of oral gavage using a gastric tube. Blood samples were drawn immediately prior to gavage at t=0, as well as at t=0.5, t=1, t=2, t=3, t=4, t=5 and t=6 hr thereafter. Blood pressure was recorded (mean value every 10 min) throughout the 6 hr study period;
(§4) Study drugs: Rats were randomly administered either lysozym/alcalase or lysozym (both 1000 mg/kg; dissolved in 1 ml drinking water), or water only.

plasma ACE activity = biological target: T1, plasma ACE activity (Rattus norvegicus, UniProt P47820); assay: Acute oral treatment of anaesthetized SHR, plasma ACE activity; assay type: in vivo; conditions: single oral dose 1000 mg/kg
T1 construct: effects of acute oral treatment of anaesthetized SHR with lysozym/alcalase on blood pressure and plasma ACE activity; from tissue; host or cells: blood plasma of SHR rats
T1 sequence (P47820 36-1313): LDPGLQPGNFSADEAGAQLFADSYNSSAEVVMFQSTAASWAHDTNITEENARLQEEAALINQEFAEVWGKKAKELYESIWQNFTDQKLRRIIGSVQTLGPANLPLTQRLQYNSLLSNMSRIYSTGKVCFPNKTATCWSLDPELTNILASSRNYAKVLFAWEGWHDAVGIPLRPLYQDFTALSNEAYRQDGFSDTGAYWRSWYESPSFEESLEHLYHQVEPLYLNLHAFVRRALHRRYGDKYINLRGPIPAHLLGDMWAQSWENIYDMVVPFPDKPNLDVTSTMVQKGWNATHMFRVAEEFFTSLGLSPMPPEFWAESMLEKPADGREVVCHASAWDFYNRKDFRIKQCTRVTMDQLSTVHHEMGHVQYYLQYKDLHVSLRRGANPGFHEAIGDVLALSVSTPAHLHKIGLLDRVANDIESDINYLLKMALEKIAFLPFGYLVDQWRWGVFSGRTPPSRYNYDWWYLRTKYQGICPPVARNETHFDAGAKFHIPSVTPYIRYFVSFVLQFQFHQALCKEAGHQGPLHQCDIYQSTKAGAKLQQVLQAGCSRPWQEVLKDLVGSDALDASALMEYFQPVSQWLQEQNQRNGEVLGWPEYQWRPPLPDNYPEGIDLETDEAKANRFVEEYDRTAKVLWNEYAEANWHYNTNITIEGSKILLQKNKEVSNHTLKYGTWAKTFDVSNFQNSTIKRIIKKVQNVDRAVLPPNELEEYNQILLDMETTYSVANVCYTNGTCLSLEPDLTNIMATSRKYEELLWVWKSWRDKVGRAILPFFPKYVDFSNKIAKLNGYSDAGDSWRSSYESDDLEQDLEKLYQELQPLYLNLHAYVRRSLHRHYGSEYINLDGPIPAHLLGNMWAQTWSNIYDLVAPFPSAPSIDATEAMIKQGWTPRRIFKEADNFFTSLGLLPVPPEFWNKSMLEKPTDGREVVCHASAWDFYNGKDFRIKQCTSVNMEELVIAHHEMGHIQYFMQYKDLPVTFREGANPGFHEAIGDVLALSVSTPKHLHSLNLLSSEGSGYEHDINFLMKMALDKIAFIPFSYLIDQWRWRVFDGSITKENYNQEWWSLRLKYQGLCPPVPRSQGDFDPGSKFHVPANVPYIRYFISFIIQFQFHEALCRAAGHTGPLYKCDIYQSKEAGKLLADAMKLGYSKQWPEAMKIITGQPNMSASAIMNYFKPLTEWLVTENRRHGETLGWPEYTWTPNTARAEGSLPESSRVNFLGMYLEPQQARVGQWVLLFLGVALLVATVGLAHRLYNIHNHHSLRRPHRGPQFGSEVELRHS
Description: as §1, §2, §3, §4

Sequence of Angiotensin-I Converting Enzyme (ACE) (P12821 30-1306, species assumed): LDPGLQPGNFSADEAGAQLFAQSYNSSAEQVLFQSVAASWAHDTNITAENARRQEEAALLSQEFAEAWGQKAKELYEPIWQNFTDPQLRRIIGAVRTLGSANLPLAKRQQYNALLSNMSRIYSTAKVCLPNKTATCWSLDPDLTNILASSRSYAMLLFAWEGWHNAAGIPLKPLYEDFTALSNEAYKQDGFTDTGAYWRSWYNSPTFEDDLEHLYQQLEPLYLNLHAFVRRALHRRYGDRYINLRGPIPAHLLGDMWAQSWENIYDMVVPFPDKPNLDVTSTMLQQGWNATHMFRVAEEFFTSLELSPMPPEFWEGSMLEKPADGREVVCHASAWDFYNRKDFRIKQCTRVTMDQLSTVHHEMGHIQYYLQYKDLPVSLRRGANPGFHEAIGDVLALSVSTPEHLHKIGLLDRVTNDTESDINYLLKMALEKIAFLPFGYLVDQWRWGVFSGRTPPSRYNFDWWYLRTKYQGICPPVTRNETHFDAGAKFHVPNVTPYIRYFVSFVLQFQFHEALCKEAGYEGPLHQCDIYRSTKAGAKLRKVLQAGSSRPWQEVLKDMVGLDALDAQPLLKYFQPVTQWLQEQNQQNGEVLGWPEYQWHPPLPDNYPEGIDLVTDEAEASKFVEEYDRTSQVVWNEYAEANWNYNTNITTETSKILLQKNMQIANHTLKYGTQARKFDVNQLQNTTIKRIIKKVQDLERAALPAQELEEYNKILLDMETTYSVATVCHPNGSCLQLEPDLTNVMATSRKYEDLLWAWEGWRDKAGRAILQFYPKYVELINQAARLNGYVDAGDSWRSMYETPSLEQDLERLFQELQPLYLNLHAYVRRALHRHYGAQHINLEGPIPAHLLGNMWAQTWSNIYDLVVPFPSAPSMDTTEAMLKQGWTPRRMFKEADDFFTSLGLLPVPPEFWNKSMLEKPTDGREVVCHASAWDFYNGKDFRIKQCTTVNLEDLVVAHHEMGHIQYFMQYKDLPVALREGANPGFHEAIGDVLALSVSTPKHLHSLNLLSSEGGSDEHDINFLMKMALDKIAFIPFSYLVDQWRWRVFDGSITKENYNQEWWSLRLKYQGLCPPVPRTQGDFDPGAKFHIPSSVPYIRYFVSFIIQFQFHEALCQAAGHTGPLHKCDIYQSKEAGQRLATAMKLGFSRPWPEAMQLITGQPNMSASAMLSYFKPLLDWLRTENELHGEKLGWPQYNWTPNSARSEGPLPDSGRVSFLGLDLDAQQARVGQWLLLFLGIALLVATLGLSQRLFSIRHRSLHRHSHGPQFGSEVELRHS

ACE inhibition ([1]; conc. 0.019 mg/ml) | ACE inhibition ([1]; conc. 0.056 mg/ml) | ACE inhibition ([1]; conc. 0.167 mg/ml) | ACE inhibition ([1]; conc. 0.500 mg/ml) | maximal decrease (inhibition) of plasma ACE activity from baseline (plasma ACE activity) | Substance | maximal reduction in SBP (SHR rats)
0.1 | 1.3 | −4.7 | 2.6 | approx. 10% | Lys UM: lysozyme, not pre-hydrolysed, nor in vitro digested; control in SHR studies | approx. 15%
−0.4 | 5.2 | 2.2 | 2.1 | – | OM-UM: ovomucin, not pre-hydrolysed, nor in vitro digested | –

Source: patent publication US8753698B2, “Anti-hypertensive functional food products” (Globus Egg Sciences B.V., priority 2004, dated 2014)
